In publication PMC11870394 one finds stoichiometry N data, which are given here for one substance.

For this assay, the target named is RSV prefusion F (PR-DM) (respiratory syncytial virus A) (UniProt P03420). Nature of the assay: cryo-EM structure.

Consider “RSV prefusion F (PR-DM) (from UniProt P03420) (complex)”, for which the stoichiometry N (as a rule, the number of molecules, sites or subunits per partner or assembly) came out at 3.
